In patent US10548981B2, “Silk-based drug delivery system” (TRUSTEES OF TUFTS COLLEGE, priority 2004, dated 2020):
Entries after “also recorded” stand apart in the source; their conditions may differ.

Experiments:
[1] = Release of HRP and Lysozyme from silk films, analyzed by biological potency tests (FIG. 5); assay type: physicochemical; conditions: for release / released protein-drug activity: methanol treated films
[2] = Protein activity after water vapor treatment of drug loaded films; assay type: physicochemical; conditions: water vapor treatment of drug loaded films at 25° C. over a saturated Na2SO4 solution for 24 hours
Experimental: Conclusion: Drug release from silk films was a function of the drugs molecular weight and film treatment with methanol. […] This decrease of activity was correlated to methanol sensitivity of Lys (and to a lesser extent for HRP). Alternatively, crystallinity can be induced by water vapor treatment (data not shown) of drug loaded films at 25° C. over a saturated Na2SO4 solution for 24 hours.

[3] = loaded films exposed to methanol

| Substance | continuous release until [1, 3] [days] | initial burst [1, 3] | start of release [1, 3] [days] | release / released protein-drug activity [1] | initial burst, of the total loading ([1]; native silk films) [%] | lag phase ([1]; native silk films) | protein activity [2] | release / released protein-drug activity ([1]; listed as Lys) |
| --- | --- | --- | --- | --- | --- | --- | --- | --- |
| horseradish peroxidase [HRP] | 23 | No initial burst | 5 | substantially less protein-drug activity | 5 | two | No loss of protein activity |  |
| Lysozyme |  |  |  |  |  |  | No loss of protein activity | did not release substantial amounts over time; also recorded: substantially less protein-drug activity |
